For test [1], the target named is cell surface associated CCR5 (CF2Th-CCR5 cells) (UniProt P51681).
Test [2] has the same target. Briefly: flow cytometry on CF2Th-CCR5 cells, anti-CCR5 mAb 5C7, no ligand, background subtracted. In general terms: In flow cytometry, cells or beads pass a laser one at a time.
Test [3] shares this target. Description: flow cytometry on CF2Th-CCR5 cells, anti-CCR5 mAb 5C7, cells preincubated with gp140 + sCD4.
Test [4] has the same target. Briefly: flow cytometry on CF2Th-CCR5 cells, anti-CCR5 mAb 5C7, cells preincubated with sCD4 (1 µg/ml).

Values joined by “and” are separate entries in the source; they are usually repeats but may differ in a detail not shown here. Equal values may be shown once. Read-outs that look alike come from different tables or passages of the source.

Chain of UniProt P51681 (P51681 whole entry): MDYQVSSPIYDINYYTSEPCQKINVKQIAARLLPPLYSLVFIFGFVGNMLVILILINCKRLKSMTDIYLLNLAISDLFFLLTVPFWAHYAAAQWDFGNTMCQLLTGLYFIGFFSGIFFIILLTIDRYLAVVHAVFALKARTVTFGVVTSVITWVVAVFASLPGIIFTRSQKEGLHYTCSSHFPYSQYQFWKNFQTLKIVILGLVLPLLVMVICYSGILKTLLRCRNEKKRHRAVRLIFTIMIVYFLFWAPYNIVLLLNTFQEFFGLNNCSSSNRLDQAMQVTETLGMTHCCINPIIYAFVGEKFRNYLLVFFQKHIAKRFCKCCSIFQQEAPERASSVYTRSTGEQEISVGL

As to “two-domain soluble CD4 (sCD4) (from UniProt P01730 26-208) (receptor)”, in test [1], the geometric mean of fluorescence intensity (arbitrary units) turned out to be 20.

Take anti-CCR5 mAb 5C7 (antibody): the geometric mean of fluorescence intensity (arbitrary units) in test [1] was 1200 and 1100; in test [2], 1100; in test [3], 370; in test [4], 1300.
